Data taken from the DeepSol protein solubility set.

Assay: soluble on expression in E. coli; label from the status in PepcDB or PDB records

Soluble on expression in E. coli, not soluble:
MGSDKIHHHHHHMSENHWENQPGTPPDVTPECGQESDGERLYLWRQIVHWRSGTGGSQCNPLIELDKQNHWSVMNGGATGASGWLLVPTDRKKGIECRDIWTHRDPNYWNAAWGYVRSPYGSPTTTGLGINSKDKRTQDQLHIHIATFQSDAKTYLDARSPSEIATTPGDWAKKLLTVPSDSKPGQVYRVLHVKDLATDNLFNLLQSNVVSSDQMGNQTMIVIPAKSGGFYVLNSDISLSQGAAFGTGTCNHLLKCS
MGSDKIHHHHHHMHDVLAKGILSSNNGMNIYRGCTHGCIYCDARSLCYGMDHIFEDIEVKTNVVELLEDTLKRKRKKCMIGTGAMSDPYIHLEEKLQNTRRCLEIIDKYGFGLSILTKSNRILRDLDLLKSINNKAKCVVEMTLTTYDEELCKIIEPNVSTTKERFEVLKIMRDNKIPTVVWLSPILPYINDTEENIRGILDYCIEAEVKGIIVFGIGVTLRNGNREYYYKNLDKQFKGLKEKYIRQYGNSYEVVSKNHEKLMKIIKETCNKNNIICDIREVFNYMRTFEEKNNEVQIGFDI
MKFDIVVIGGGLAGASLLAALKGSGLRLALIESRPPAPLPDDDSWDARVYAISPGSVEFLQSSGIWQRMNAARITPVHEMRVHGDDNAARIDFSAYESGVPELACIIENRQLQHAVWEELAGAENVQIFCPAQCDSLAWQDSHVELTLADGTVLQTALLIGADGINSRVREQAGIGVDRHSYYQTGVVANFETERVHHHIAYQWFRRDGILALLPLPGKRVSMVWSANTALADELLNLSAEALCDRVARAAEYELGSMRLVTAPLGFPLNFVHARSLIKPRLALIGDAAHGIHPLAGQGVNLGLRDVRELARLQRQFGGIGDCGEFSLLRCYERNRKEDILAMGWVTDGLQKLFGSEDAAIMRIRNVGLGITNRLPLLKNRLMRHALSLEHHHHHH
MGSDKIHHHHHHMERFFIVGCGDIGKKVARIALADGAGVAALIRSPEKAESLREMGVTALEANLDERDSLAGMPTRGAVVFYFAPPPGGGVTDPRVRAFCDAIAPGEEPRKIVYLSTSGVYGDCGGDVVTEETPPNPQTSRARRRYDAETVFRQWGAERGVPVVILRVTGIYGPGRLPLQQLTSGQPVLEESLAPFTNRIHSEDLARICLAAAEHGEDGDIFNVSDGHPTTMTAYFDACADALGLPRPRRVTLEEARRVMTPLMFSYVTESRKMDNRLMREKLHVTLLYPTMQEGVRSSVA
MKSVVSSRETRSESNKSRRTFASTEWNKIIRETLYLETIYIPLDATSHSPDIIFQLQSPVEPKVLTVGVACKGRWKSEGIGWSDIIDEAKKFLDPVYDQVLSSAMDYHHCMLIIVSTKLSLNVSNELGNQSRCYSSGMFIRGDSFKVPDNCELVILCERDVQMLIDEEILSGLERAFHVSRSPTFWDFRLDLLVNLQ
MCLVNEFVSNSNMKPALNVSGDEKELILQLRRYLEEKLTYLLDQNGTVSIGVSGGSMPRVFSKAILSLPQEQLNWKRIRIFMVDERNVDLDSEESNQGEYLRLFPNELRDVFVPMQIFKDPCLTAQHYEISLRKYLLPEQLNNTARFDILFLGVGPDGHTASIFPGKERLEKITELNWVSVITDSPKPPPSRITLTLQTLQHAKNVAFIICGKQKAEIVRGICDRDQKYPAAQARPFNDKLTLFLDEDAATGVPDRDSSDSDSPPPFDG
MGQLVDGVWHDTWYETKSTGGHFKRSESAFRNWVTPDGAPGLTGKGGFPAQSGRYHLYVSLACPWAHRTLLMRQLKGLEDHIAVSVVHPLMLDHGWTFGTDFEAATGDSLYQHEFLYQLYLHAKPDYSGRVTVPVLWDTEQHTVVSNESADIIRMLNSAFDGVGAIAGDYYPEALRTQIDELNSWIYDKVNNGVYKAGFATTQSAYDESASTVFAALSDLETILAKQRYLTGEQLTEADLRLWTTLIRFDPVYHTHFKCDKYRLSDYPNLFGFLRDIYQMPGIAETVDMAHIRHHYYRSHGLEHHHHHH
MSVLSIIACEMLEDELVYVLSKDQNAVRLILVENRQCFRFVRKLKSGNCQARIFPPERISFFIKQMNRPASMKIPNFLLKFPFFGKIHENMKEKNRETITVVVNILKLGLHADCDLLKSEIYRNMKEMVEFSDGILIFYGNCGRPLRGLEAEFKDFNCPLYFLEDEKGNIVDDCISIALGGNDNYAEVMQSGNGTGMIYLTPMWASSWKEMRMEPGDTSDFNVSFLKRHYRKVVKISNEISMGSEFDKNVLNYARTFDMSIIEMKGSMEIAMKSYMNARNGICKKDPIQKSSLEHHHHHH
VVVTDMGILAKRSVDGSLDIFVQSLSQGLPIANAKVDVVGRNGLSVAEGFTDLGGHVHLPKLGQLRREKRPLFYRVEKAGDVSFLPIGDWRRELDMSRFDIGGSNESEDPNTLSAYLFTDRGLYRPGETAHVASLVRSQSWGASLDGLPVKMVVTDPRGIDVLDRTFNLDSSGFNSLDFSSTEAAVAGEYTASLSLIRDKHNLTRLGEESFKVRDFEPDRIKVRVTLGATESGTSIGWLKPEEVSAKVQAEQLFGGPAGDRRVTGEMVLSPTDISFKELPGYYFGVQGE
MIYKSIAERLRIRLNSADFTLNSLLPGEKKLAEEFAVSRMTIRKAIDLLVAWGLVVRRHGSGTYLVRKDVLHQTASLTGLVEVLKRQGKTVTSQVLIFEIMPAPPAIASQLRIQINEQIYFSRRVRFVEGKPLMLEDSYMPVKLFRNLSLQHLEGSKFEYIEQECGILIGGNYESLMPVLADRLLARQMKVAEHTPLLRITSLSYSESGEFLNYSVMFRNASEY
MGSDKIHHHHHHMDVIQLSNDGRCRWLEKQVMNKIFPQAIRSAKIKDIPTQYMIIDWISNDNGKVGVDLKWFKKLGVPYVKTYNDLPEGNDFVVVNTGYDSIVHEEKVLREKGVEILDKPCPFVRKLRKEFEKIDDSYQYVLLCESNHIIIKNFATIFPRDMILIQMGNYKEKLLEQSNGKPMMFISYVTFLKKHSIQVFDFINKTFPGKDHKMVDTQCMWAAGRLSPIDEIRNMSEDILKEVRYALLIGSPGSTNKSLMSLHETIIDKGLEVINIGSLRDFLDFRRKHKKEKVLLVKSPIPNQAEKPILAFLRHGYLYAYYTLWRER
GPGSMGNGCCGCCDAKPDYKLGRPLVSGKTTPCFNDGRLFKIVKGDIWYFYNDTQDYQMKVTADFGNGSNIVAMSDTELVRKNDSGACTATVSVFPLETKAMVQTKEVNGFNVKYSGIAFTDADRQKLRQKAAAQVSADLAEMRKLRERNPKVNNQNRLLKVARGKGKMYVDTSFPPTSQSLIRSGIDSDPDACLKRPETIAWRRPEDFLPKKWHPKIRLFGNISPKDISQGQLGDCYYLCALAALAEHDAAIKGIFKNHHGCCIRSQERKHGAWRVNLNISGWWRTIIIDSYLPTVQLLPVFARNRNHPNELWVSFAEKAYAKVFGSYQAIVAGYPWQALEDLTGFPAYNFGNMWRTAQTDTETRKKLFDSLHRWNKKYLICIATPSNGALKMAGKQLSANQWEALFEKAGLRIGHAYSVLDVRHFPLHRLCMLKIRNPWGSHVEWSGDWGDDSPLWNRYPFIKLACRPEKKADGIFWMEWRDVSKFFDSGSVCFRRGHWFRSWYDYRVLGSFEDLVCDTALLIIVNKTSQFPAYISLHQKDCRGLATSDPDSKYACVMISISEGDINGSQQKVVANSSENPEEPSTEYLFQESRSVSLYYKFTKGHKYLVIPRRMKSSTGNNVPKKKYVIALRTQTKVSSEDVVVNIVRLDKNNAVFKNVASFDAGTPTSLNTLYQIKDGNNVFRTYRSDNLRKGKKQHNAEFELVM

Soluble on expression in E. coli, soluble:
MAAKIPGVIALFDVDGTLTAPRKEATPELLDFIRELRKVVTIGVVGGSDLSKISEQLGKTVTNDYDYCFSENGLVAHKDGKSIGIQSLKLHLGDDKLKELINFTLHYIADLDIPIKRGTFIEFRNGMLNVSPIGRNCSQEERDEFERYDKVQNIRPKMVAELRERFAHLNLTFSIGGQISFDVFPKGWDKTYCLQYLEDFSEIHFFGDKTYEGGNDYEIYESPKTIGHSVTSPDDTVAKCKALFMS
GMKSLHRPDLYSWSTFNPARNIDFNGFAWIRPEGNILIDPVALSNHDWKHLESLGGVVWIVLTNSDHVRSAKEIADQTYTKIAGPVAEKENFPIYCDRWLSDGDELVPGLKVMELQGSKTPGELALLLEETTLITGDLVRAYRAGGLEILPDEKLMNKQKVVASVRRLAALEKVEAVLVGDGWSVFRDGRDRLKELVATLA
SLPMQHVHTSPVRDYRNRCARREGETVFQVVVEETDLRVTALAELATPMAAYVGELRAQLKVWMEFQPAFRHSLVPVEVPEGAPEVVRRMAHGARLVGVGPFAAVAGTIAQMVAERFVDVSPELIVENGGDLYLYSERDRVVGILPDPASGDMVGILVRAGTAPVSLCGSSARIGHSLSLGDGDLAVVRARDASLADAAATAFGNMLRRADDVAAVTERAAQLASIGIEGVYAQCGGRIGIWGDMELAVA
MSLQSADESTFDRIRRTKKLRIGAVAGGAPYYNKDLATGQWKGFYIDISKALADELECQLEITETTWGNSVLDLQANKIDIFFGLNPTPKRALVVDFSVPVFSNAFTMLTRKDFAPKTWAELNDPNVKIAVDVGSSHDQVVSRLCPKAQIVRLKTADEATMALVSGRVDAQCIILMLALTVRKKNPNVGQLLVPTPVFSTTSNAGFRRENDKTWRDYVNTWIEYNKGLGFIRSAIVTNMELVGVTEADMPAGIQEGHHHHHH
MSAFTPASEVLLRHSDDFEQSRILFAGDLQDDLPARLDTAASRAHTQQFHHWQVLSRQMGDNARFSLVATADDVADCDTLIYYWPKNKPEAQFQLMNLLSLLPVGTDIFVVGENRSGVRSAEQMLADYAPLNKVDSARRCGLYFGRLEKQPVFDAEKFWGEYSVDGLTVKTLPGVFSRDGLDVGSQLLLSTLTPHTKGKVLDVGCGAGVLSVAFARHSPKIRLTLCDVSAPAVEASRATLAANGVEGEVFASNVFSEVKGRFDMIISNPPFHDGMQTSLDAAQTLIRGAVRHLNSGGELRIVANAFLPYPDVLDETFGFHEVIAQTGRFKVYRAIMTRQAKKG
AIAVHRDPAEELWCELWQPGVDITRKMNAIFGLKEIGTERAVTLLCAALLDARERSVLVRHEIAYVLGQIQSAASIKTLTDRLIDTDENSIVRHECGEALGAVRAFAVRPILQKLCGDAVPEVRETCVLALERLRWLEEKSTNEERVRETSAKAFKLFETVDPAPAFVAPDDLEASWSNAELGELLLNENEPLFRRYRALFTLRDRNTDDTAGVIAAALRRDTSSALFRHEVAYVLGQMSRACTLPALESALADTHEHAMVRHEAAEAIGAIGNSSACDILRRFLRDANVIVRESCQVALDIAGISDDCQFMD
GKVFERCELARTLKRLGMDGYRGISLANWMCLAKWESGYNTRATNYNAGDRSTDYGIFQINSRYWCNDGKTPGAVNACHLSCSALLQDNIADAVACAKRVVRDPQGIRAWVAWRNRCQNRDVRQYVQGCGV
DCMFGNGKGYRGKRVTTVTGTPCQDWAAQEPHRHSIFTPETNPRAGLEKNYCRNPDGDVGGPWCYTTNPRKLYDYCDVPQCAAP
MCLIVFAWRPGHALPLIVAANRDEFYARPTQPLAAWEDAPGVHAGRDLEAGGTWLGVGPQGRFAALTNIRDPGQAQGPRSRGELVAAFLQGELGVGAYLDQVASRSGQYSGFNLLVGDGQRLGYLHAREATPRLLKAGVYGLSNAGLDTPWPKLVKARDGLENLLDTPEPHRLLALLADNEPAADGDLPETGVGLATEKLLSSVFIASQNYGTRASTVLIVDDQGQRRLVERSFGPFGGHLGEIELLVLEHHHHHH
